Laboratory results: patent US20050287149A1 (Bristol-Myers Squibb, published 2005)
Substitutions are numbered along the chain they refer to.

B1: human monoclonal antibody 2D5 (antibody, V domains shown)
VH: QVQLVESGGGVVQPGRSLRLSCAASGFTFSSYGMHWVRQAPGKGLEWVAVIWNDGSNKYYADSVKGRFTISRDNSKNTLYLQMNSLRAEDTAVYYCARENWGEYFDYWGQGTLVTVSS
VL: AIQLTQSPSSLSASVGDRVTITCRASQGISSALAWYQQKPGKAPKLLIYDASSLKSGVPSRFSGSGSGTDFTLTISSLQPEDFATYYCQQFNSYWTFGQGTKVEIK
notes: also called HuMab 2D5
B2: human monoclonal antibody 5D5 (antibody, V domains shown)
VH: QVQLVESGGGVVQPGRSLRLSCAASGFTFSSYGMHWVRQAPGKGLEWVAVIWYDGSNKYYADSVKGRFTISRDNSKNTLYLQMNSLRAEDTAVYYCAREGNRSHYIPFAYWGQGTLVTVSS
VL: DIQMTQSPSSLSASVGDRVTITCRASQGISSWLAWYQQKPEKAPKSLIYAASSLQSGVPSRFSGSGSGTDFTLTISSLQPEDFATYYCQQYNSYPRTFGGGTKVEIK
notes: also called HuMab 5D5; 5D5-2E10
B3: human monoclonal antibody 2H4 (antibody, V domains shown)
VH: EVHLVESGGGLVQPGGSLRLSCAASGFTFSSYWMSWVRQAPGKGLEWVANINQYGSEKYYVDSVKGRFTISRDNAKNSLYLQMNSLRAEDTAVYYCARDSPYYYGSGSYYRGYWYFDLWGRGTLVTVSS
VL: B2 VL with R96P, G100Q, K103R, V104L
notes: also called HuMab 2H4

Tests used:
[1] = target: T1, Bacillus anthracis protective antigen, cleaved 63 kD form (PA63) (Bacillus anthracis, UniProt P13423 197-764); assay: ELISA, plate coated with PA63 (FIG. 11)
T1 construct: also called cleaved protective antigen (63 kD); active fragment of PA

[2] = target: T2, Bacillus anthracis protective antigen, full-length 83 kD form (PA83) (Bacillus anthracis, UniProt P13423 30-764); assay: ELISA, plate coated with PA83 (FIG. 11)
T2 construct: mature; also called rPA-83; full length PA 83
T2 sequence (P13423 30-764): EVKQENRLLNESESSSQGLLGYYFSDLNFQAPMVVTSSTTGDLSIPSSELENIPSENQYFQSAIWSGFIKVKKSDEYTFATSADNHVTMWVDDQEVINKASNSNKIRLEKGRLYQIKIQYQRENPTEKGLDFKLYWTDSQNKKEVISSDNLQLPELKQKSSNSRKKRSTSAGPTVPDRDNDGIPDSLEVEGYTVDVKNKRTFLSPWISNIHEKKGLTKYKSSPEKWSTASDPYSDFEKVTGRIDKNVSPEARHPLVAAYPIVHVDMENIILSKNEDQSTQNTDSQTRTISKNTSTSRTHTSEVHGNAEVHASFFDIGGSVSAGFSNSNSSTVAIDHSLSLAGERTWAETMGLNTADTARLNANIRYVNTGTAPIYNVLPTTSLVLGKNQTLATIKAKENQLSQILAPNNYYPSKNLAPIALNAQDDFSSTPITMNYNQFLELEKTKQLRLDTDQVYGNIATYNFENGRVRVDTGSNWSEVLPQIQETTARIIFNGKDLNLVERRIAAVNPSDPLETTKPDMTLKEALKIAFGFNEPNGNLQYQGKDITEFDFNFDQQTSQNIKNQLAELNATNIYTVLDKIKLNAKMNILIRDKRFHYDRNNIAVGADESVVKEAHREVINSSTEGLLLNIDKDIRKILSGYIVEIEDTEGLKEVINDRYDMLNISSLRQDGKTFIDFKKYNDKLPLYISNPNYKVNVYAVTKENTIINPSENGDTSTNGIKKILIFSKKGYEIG

T1 sequence (P13423 197-764 limits assumed): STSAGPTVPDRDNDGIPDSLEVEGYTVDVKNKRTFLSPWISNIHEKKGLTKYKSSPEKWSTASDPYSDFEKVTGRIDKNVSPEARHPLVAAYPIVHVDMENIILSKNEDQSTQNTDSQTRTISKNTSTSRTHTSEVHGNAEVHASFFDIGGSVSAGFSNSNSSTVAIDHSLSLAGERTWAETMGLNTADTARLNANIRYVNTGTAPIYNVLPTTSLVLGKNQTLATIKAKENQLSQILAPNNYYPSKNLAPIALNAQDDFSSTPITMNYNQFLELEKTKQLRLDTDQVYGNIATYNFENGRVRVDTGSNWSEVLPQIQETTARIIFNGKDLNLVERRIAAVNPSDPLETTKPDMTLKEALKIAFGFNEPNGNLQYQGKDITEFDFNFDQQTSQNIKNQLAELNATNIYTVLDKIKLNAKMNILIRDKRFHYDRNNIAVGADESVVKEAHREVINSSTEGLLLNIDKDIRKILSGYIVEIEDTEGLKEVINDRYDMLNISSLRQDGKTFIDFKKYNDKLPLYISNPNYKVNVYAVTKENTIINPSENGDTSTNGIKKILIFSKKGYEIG

Binder | binding result [1] | binding result [2]
B1 | binds | binds
B2 | binds | binds
B3 | binds | binds
